For 39 variants, abundance fitness results are on record in the Human Domainome abundance scans (Beltran et al. 2025).

First the molecules themselves.
B1: Homeobox protein cut-like 2, residues 895 to 963; numbered along this chain, O14529 (parent)
chain: EVDTLELTRQVKEKLAKNGICQRIFGEKVLGLSQGSVSDMLSRPKPWSKLTQKGREPFIRMQLWLSDQL

± gives the uncertainty stated by the source.

The variants in this series derive from B1. Nature of the series: abundance fitness (aPCA) (normalised: wild type 0, dead -1); higher = more abundant; growth selection in yeast, the domain comes from the species named. As to conditions: Homo sapiens.
Take EVDTLELTRQVKEKLAKNGICQRIFGEKVLGLSQGSVKDMLSRPKPWSKLTQKGREPFIRMQLWLSDQL [S38K]: the abundance fitness is 0.06 ± 0.024.
As for EVDTLELTRQVKEKLAKNGICQRIFGEKVLGLSQGSVQDMLSRPKPWSKLTQKGREPFIRMQLWLSDQL [S38Q], the abundance fitness was 0.03 ± 0.025.
As for EVDTLELTRQVKEKLAKNGICQRIFGEKVLGLSQGSVPDMLSRPKPWSKLTQKGREPFIRMQLWLSDQL [S38P], the figure is -0.209 ± 0.026.
As for EVDTLELTRQVKEKLAKNGICQRIFGEKVLGLSQGSVSPMLSRPKPWSKLTQKGREPFIRMQLWLSDQL [D39P], the abundance fitness is -0.184 ± 0.068.
Turning to EVDTLELTRQVKEKLAKNGICQRIFGEKVLGLSQGSVSRMLSRPKPWSKLTQKGREPFIRMQLWLSDQL [D39R], the abundance fitness was -0.456 ± 0.16.
EVDTLELTRQVKEKLAKNGICQRIFGEKVLGLSQGSVSEMLSRPKPWSKLTQKGREPFIRMQLWLSDQL [D39E]: the abundance fitness was determined as 0.029 ± 0.31.
The same measure for EVDTLELTRQVKEKLAKNGICQRIFGEKVLGLSQGSVSVMLSRPKPWSKLTQKGREPFIRMQLWLSDQL [D39V]: -0.389 ± 0.14; for EVDTLELTRQVKEKLAKNGICQRIFGEKVLGLSQGSVSYMLSRPKPWSKLTQKGREPFIRMQLWLSDQL [D39Y]: -0.324 ± 0.11; for EVDTLELTRQVKEKLAKNGICQRIFGEKVLGLSQGSVSWMLSRPKPWSKLTQKGREPFIRMQLWLSDQL [D39W]: -0.328 ± 0.36.
As for EVDTLELTRQVKEKLAKNGICQRIFGEKVLGLSQGSVSTMLSRPKPWSKLTQKGREPFIRMQLWLSDQL [D39T], the figure is -0.17 ± 0.11.
As for EVDTLELTRQVKEKLAKNGICQRIFGEKVLGLSQGSVSQMLSRPKPWSKLTQKGREPFIRMQLWLSDQL [D39Q], the figure is 0.005 ± 0.096; as for EVDTLELTRQVKEKLAKNGICQRIFGEKVLGLSQGSVSKMLSRPKPWSKLTQKGREPFIRMQLWLSDQL [D39K], -0.441 ± 0.17.
As to EVDTLELTRQVKEKLAKNGICQRIFGEKVLGLSQGSVSAMLSRPKPWSKLTQKGREPFIRMQLWLSDQL [D39A], the abundance fitness is -0.063 ± 0.09.
Turning to EVDTLELTRQVKEKLAKNGICQRIFGEKVLGLSQGSVSCMLSRPKPWSKLTQKGREPFIRMQLWLSDQL [D39C], the abundance fitness was -0.15 ± 0.26.
EVDTLELTRQVKEKLAKNGICQRIFGEKVLGLSQGSVSMMLSRPKPWSKLTQKGREPFIRMQLWLSDQL [D39M]: the abundance fitness was -0.178 ± 0.097.
As to EVDTLELTRQVKEKLAKNGICQRIFGEKVLGLSQGSVSIMLSRPKPWSKLTQKGREPFIRMQLWLSDQL [D39I], the abundance fitness is -0.26 ± 0.13.
As for EVDTLELTRQVKEKLAKNGICQRIFGEKVLGLSQGSVSSMLSRPKPWSKLTQKGREPFIRMQLWLSDQL [D39S], the figure is -0.073 ± 0.057; as for EVDTLELTRQVKEKLAKNGICQRIFGEKVLGLSQGSVSNMLSRPKPWSKLTQKGREPFIRMQLWLSDQL [D39N], -0.188 ± 0.15; as for EVDTLELTRQVKEKLAKNGICQRIFGEKVLGLSQGSVSHMLSRPKPWSKLTQKGREPFIRMQLWLSDQL [D39H], -0.279 ± 0.12.
Turning to EVDTLELTRQVKEKLAKNGICQRIFGEKVLGLSQGSVSGMLSRPKPWSKLTQKGREPFIRMQLWLSDQL [D39G], the abundance fitness is 0.026 ± 0.18.
For EVDTLELTRQVKEKLAKNGICQRIFGEKVLGLSQGSVSDRLSRPKPWSKLTQKGREPFIRMQLWLSDQL [M40R], the abundance fitness is -0.145 ± 0.038.
The same measure for EVDTLELTRQVKEKLAKNGICQRIFGEKVLGLSQGSVSDVLSRPKPWSKLTQKGREPFIRMQLWLSDQL [M40V]: -0.046 ± 0.07; for EVDTLELTRQVKEKLAKNGICQRIFGEKVLGLSQGSVSDWLSRPKPWSKLTQKGREPFIRMQLWLSDQL [M40W]: 0.048 ± 0.046; for EVDTLELTRQVKEKLAKNGICQRIFGEKVLGLSQGSVSDILSRPKPWSKLTQKGREPFIRMQLWLSDQL [M40I]: 0.007 ± 0.08.
The same measure for EVDTLELTRQVKEKLAKNGICQRIFGEKVLGLSQGSVSDGLSRPKPWSKLTQKGREPFIRMQLWLSDQL [M40G]: -0.298 ± 0.077.
For the variant EVDTLELTRQVKEKLAKNGICQRIFGEKVLGLSQGSVSDHLSRPKPWSKLTQKGREPFIRMQLWLSDQL [M40H], the abundance fitness was -0.287 ± 0.081.
As for EVDTLELTRQVKEKLAKNGICQRIFGEKVLGLSQGSVSDELSRPKPWSKLTQKGREPFIRMQLWLSDQL [M40E], the figure is -0.475 ± 0.1.
EVDTLELTRQVKEKLAKNGICQRIFGEKVLGLSQGSVSDKLSRPKPWSKLTQKGREPFIRMQLWLSDQL [M40K]: the abundance fitness is -0.02 ± 0.074.
As for EVDTLELTRQVKEKLAKNGICQRIFGEKVLGLSQGSVSDYLSRPKPWSKLTQKGREPFIRMQLWLSDQL [M40Y], the figure is -0.236 ± 0.11.
As for EVDTLELTRQVKEKLAKNGICQRIFGEKVLGLSQGSVSDTLSRPKPWSKLTQKGREPFIRMQLWLSDQL [M40T], the figure is -0.224 ± 0.049; as for EVDTLELTRQVKEKLAKNGICQRIFGEKVLGLSQGSVSDQLSRPKPWSKLTQKGREPFIRMQLWLSDQL [M40Q], -0.29 ± 0.063.
As for EVDTLELTRQVKEKLAKNGICQRIFGEKVLGLSQGSVSDNLSRPKPWSKLTQKGREPFIRMQLWLSDQL [M40N], the figure is -0.473 ± 0.21.
For EVDTLELTRQVKEKLAKNGICQRIFGEKVLGLSQGSVSDSLSRPKPWSKLTQKGREPFIRMQLWLSDQL [M40S], the abundance fitness was -0.201 ± 0.038.
Regarding EVDTLELTRQVKEKLAKNGICQRIFGEKVLGLSQGSVSDCLSRPKPWSKLTQKGREPFIRMQLWLSDQL [M40C], the abundance fitness is -0.045 ± 0.082.
The same measure for EVDTLELTRQVKEKLAKNGICQRIFGEKVLGLSQGSVSDPLSRPKPWSKLTQKGREPFIRMQLWLSDQL [M40P]: -0.251 ± 0.037.
Regarding EVDTLELTRQVKEKLAKNGICQRIFGEKVLGLSQGSVSDFLSRPKPWSKLTQKGREPFIRMQLWLSDQL [M40F], the abundance fitness is -0.189 ± 0.083.
As for EVDTLELTRQVKEKLAKNGICQRIFGEKVLGLSQGSVSDDLSRPKPWSKLTQKGREPFIRMQLWLSDQL [M40D], the abundance fitness is -0.059 ± 0.13.
The same measure for EVDTLELTRQVKEKLAKNGICQRIFGEKVLGLSQGSVSDLLSRPKPWSKLTQKGREPFIRMQLWLSDQL [M40L]: 0.136 ± 0.036.
The same measure for EVDTLELTRQVKEKLAKNGICQRIFGEKVLGLSQGSVSDALSRPKPWSKLTQKGREPFIRMQLWLSDQL [M40A]: -0.169 ± 0.046.
